Drawing on doi:10.1101/2023.11.14.567104, this text covers Kd for 1 substance.

The assay has as its target Recombinant soluble integrin αvβ3 (UniProt P06756). In words: SPR. (In SPR one partner is held on a chip, and binding of the other changes the refractive index at the surface.)

For “Heparin-binding domain (HBD, residues 111-165) of VEGF165, wild type (domain or fragment)”, the dissociation constant Kd (as a rule, the equilibrium constant for the complex coming apart) is 470 nM.
